Data from EP0562624A2, “Stabilization of functional proteins” (Modrovich, Ivan E., priority 1992, dated 1993).

Experiment: Stability of HRP in uric acid single reagent solution
Assay type: physicochemical
Settings: Uric Acid SR Model
Description: As in Example 2 Horseradish Peroxidase (HRP) was dissolved in an aqueous base containing 50 mg/ml BSA and 10 mg/ml Tris with no pH adjustment. HRP concentration was 30 mg/ml.
EDAC and PSL solutions were formed as in Example 2 as in relative concentrations of 100 mg/ml and 20 mg/ml. The PSL solution was added in an amount of 0.14 ml per 0.5ml of HRP solution dropwise over an ice bath. This was followed by the addition of the EDAC solution in an amount of 0.05 ml per 0.5 ml of HRP solution. The mixture was stored at 4°C for 4 days and evaluated for the stability of HRP in a uric acid single reagent solution.
This is reported in Table 4 where the Control 4 is the unmodified horseradish peroxidase.

Substance: Example 4: Horseradish Peroxidase (HRP) stabilized with PSL and EDAC
- %HRP of 4°C (1 day at 4°C): 100%
- %HRP of 4°C (1 day at 41°C): 70%
- %HRP of 4°C (3 days at 4°C): 100%
- %HRP of 4°C (3 days at 41°C): 35%
